Assay results: patent US20230265151A1, “GIP/GLP1 CO-AGONIST COMPOUNDS” (priority 2020, published 2023)
Numbering of substitutions follows the chain as printed. *1 amine or outer side, *2 acyl side, *3 side chain or, on linkers, in order; H or OH if unused. Where no end group is shown, it is not given here. Side-chain parts run from the residue outwards. [ ]: non-standard residue; d: D form. The star is where a group is joined. αMePhe(2-F) = C[C@](N)(Cc1ccccc1F)C(=O)O; γGlu = O=C(O)[C@H](CCC(=O)[*:2])N[*:1]; C14 diacid = O=C(O)CCCCCCCCCCCCC(=O)*; εLys = N[C@@H](CCCCN[*:1])C(=O)[*:2]; αMeY = C[C@](N)(Cc1ccc(O)cc1)C(=O)O; αMeL = CC(C)C[C@](C)(N)C(=O)O; Orn = NCCC[C@H](N)C(=O)O; Dap = NC[C@H](N)C(=O)O; AEEA = NCCOCCOCC(=O)O; Aib = CC(C)(N)C(=O)O

Legend:
Assay in all cases: cell-based or functional assay
human glucagon receptor = human glucagon receptor (human, UniProt P47871 26-477)
human GLP-1 receptor = human GLP-1 receptor (human, UniProt P43220 24-463)
human GIP receptor = target: T1, human GIP receptor (human, UniProt P48546 22-466)
T1 sequence (looked up): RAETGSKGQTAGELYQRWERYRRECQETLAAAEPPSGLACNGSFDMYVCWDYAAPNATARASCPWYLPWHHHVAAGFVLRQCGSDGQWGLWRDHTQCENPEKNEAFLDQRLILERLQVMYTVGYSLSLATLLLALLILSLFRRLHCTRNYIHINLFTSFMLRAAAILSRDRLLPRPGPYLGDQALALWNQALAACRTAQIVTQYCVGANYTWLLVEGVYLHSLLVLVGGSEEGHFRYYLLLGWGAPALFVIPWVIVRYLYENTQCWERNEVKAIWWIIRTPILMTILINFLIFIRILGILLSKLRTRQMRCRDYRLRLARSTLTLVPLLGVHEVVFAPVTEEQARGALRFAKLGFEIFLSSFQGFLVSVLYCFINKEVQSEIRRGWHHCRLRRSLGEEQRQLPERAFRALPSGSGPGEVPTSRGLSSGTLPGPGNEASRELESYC

B1: Y-Aib-EGT-αMeF(2F)-TSD-aMeV-SI-αMeL-LD-Orn-K((2-[2-(2-Amino-ethoxy)-ethoxy]-acetyl)2-(γ-Glu)-CO-(CH2)12-CO2H)AQ-Aib-EFI-(D-Glu)-αMeY-LIEGGK((2-[2-(2-Amino-ethox … (peptide)
peptide: YXEGTXTSDXSIXLDXKAQXEFIXXLIEGGKSSGAPPPS
modifications: Aib2, αMeF(2F)6, αMeV10, αMeL13, Orn16, Aib20, D-Glu24, αMeY25; acylated K17, K31 (groups as in name); C-terminal amide
Human glucagon receptor
  cAMP EC50 (1.0% HSA): > 9950 nM
Human GLP-1 receptor
  cAMP EC50 (1.0% HSA): 37.8 nM
Human GIP receptor
  cAMP EC50 (1.0% HSA): 18.6 nM

B2: Y-Aib-EGT-αMeF(2F)-TSD-Ac5c-SI-αMeL-LD-Orn-K((2-[2-(2-Amino-ethoxy)-ethoxy]-acetyl)2-(γ-Glu)-CO-(CH2)12-CO2H)AQ-Aib-EFI-(D-Glu)-αMeY-LIEGGK((2-[2-(2-Amino-ethox … (peptide)
peptide: B1 peptide
modifications: Aib2, αMeF(2F)6, Ac5c10, αMeL13, Orn16, Aib20, D-Glu24, αMeY25; acylated K17, K31 (groups as in name); C-terminal amide
Human glucagon receptor
  cAMP EC50 (1.0% HSA): > 9950 nM
Human GLP-1 receptor
  cAMP EC50 (1.0% HSA): 13.2 nM
  cAMP Emax (1.0% HSA): 89.3%
Human GIP receptor
  cAMP EC50 (1.0% HSA): 3.53 nM

B3: Y-Aib-EGT-αMeF(2F)-TSD-Ac6c-SI-αMeL-LD-Orn-K((2-[2-(2-Amino-ethoxy)-ethoxy]-acetyl)2-(γ-Glu)-CO-(CH2)12-CO2H)AQ-Aib-EFI-(D-Glu)-αMeY-LIEGGK((2-[2-(2-Amino-ethox … (peptide)
peptide: B1 peptide
modifications: Aib2, αMeF(2F)6, Ac6c10, αMeL13, Orn16, Aib20, D-Glu24, αMeY25; acylated K17, K31 (groups as in name); C-terminal amide
Human glucagon receptor
  cAMP EC50 (1.0% HSA): > 9950 nM
Human GLP-1 receptor
  cAMP EC50 (1.0% HSA): 20.3 nM
Human GIP receptor
  cAMP EC50 (1.0% HSA): 0.865 nM

B4: Y-Aib-EGT-αMeF(2F)-TSD-Bip-SI-αMeL-LD-Orn-K((2-[2-(2-Amino-ethoxy)-ethoxy]-acetyl)2-(γ-Glu)-CO-(CH2)12-CO2H)AQ-Aib-EFI-(D-Glu)-αMeY-LIEGGK((2-[2-(2-Amino-ethoxy … (peptide)
peptide: B1 peptide
modifications: Aib2, αMeF(2F)6, Bip10, αMeL13, Orn16, Aib20, D-Glu24, αMeY25; acylated K17, K31 (groups as in name); C-terminal amide
Human glucagon receptor
  cAMP EC50 (1.0% HSA): > 9950 nM
Human GLP-1 receptor
  cAMP EC50 (1.0% HSA): 70.5 nM
Human GIP receptor
  cAMP EC50 (1.0% HSA): 6.62 nM

B5: Y-Aib-EGT-αMeF(2F)-TSD-2Nal-SI-αMeL-LD-Orn-K((2-[2-(2-Amino-ethoxy)-ethoxy]-acetyl)2-(γ-Glu)-CO-(CH2)12-CO2H)AQ-Aib-EFI-(D-Glu)-αMeY-LIEGGK((2-[2-(2-Amino-ethox … (peptide)
peptide: B1 peptide
modifications: Aib2, αMeF(2F)6, 2Nal10, αMeL13, Orn16, Aib20, D-Glu24, αMeY25; acylated K17, K31 (groups as in name); C-terminal amide
Human glucagon receptor
  cAMP EC50 (1.0% HSA): > 9950 nM
Human GLP-1 receptor
  cAMP EC50 (1.0% HSA): 39.3 nM
Human GIP receptor
  cAMP EC50 (1.0% HSA): 4.55 nM

B6: Y-Aib-EGT-αMeF(2F)-TSD-OMeY-SI-αMeL-LD-Orn-K((2-[2-(2-Amino-ethoxy)-ethoxy]-acetyl)2-(γ-Glu)-CO-(CH2)12-CO2H)AQ-Aib-EFI-(D-Glu)-αMeY-LIEGGK((2-[2-(2-Amino-ethox … (peptide)
peptide: B1 peptide
modifications: Aib2, αMeF(2F)6, OMeY10, αMeL13, Orn16, Aib20, D-Glu24, αMeY25; acylated K17, K31 (groups as in name); C-terminal amide
Human glucagon receptor
  cAMP EC50 (1.0% HSA): > 9950 nM
Human GLP-1 receptor
  cAMP EC50 (1.0% HSA): 21.6 nM
Human GIP receptor
  cAMP EC50 (1.0% HSA): 1.12 nM

B7: Y-Aib-EGT-αMeF(2F)-TSDV-Aib-I-αMeL-LD-Orn-K((εK)-(γ-Glu)-CO-(CH2)12-CO2H)AQ-Aib-EFI-(D-Glu)-αMeY-LIEGGK((εK)-(γ-Glu)-CO-(CH2)12-CO2H)SSGAPPPS-NH2 (peptide)
peptide: Y[Aib]EGT[αMePhe(2-F)]TSDV[Aib]I[αMeL]LD[Orn]K([εLys-γGlu-C14 diacid])AQ[Aib]EFI[dE][αMeY]LIEGGK([εLys-γGlu-C14 diacid])SSGAPPPS-NH2
modifications: N-terminus assumed
SMILES: CC[C@H](C)[C@H](NC(=O)[C@H](CC(C)C)NC(=O)[C@](C)(Cc1ccc(O)cc1)NC(=O)[C@@H](CCC(=O)O)NC(=O)[C@@H](NC(=O)[C@H](Cc1ccccc1)NC(=O)[C@H](CCC(=O)O)NC(=O)C(C)(C)NC(=O)[C@H](CCC(N)=O)NC(=O)[C@H](C)NC(=O)[C@H](CCCCNC(=O)[C@@H](N)CCCCNC(=O)CC[C@H](NC(=O)CCCCCCCCCCCCC(=O)O)C(=O)O)NC(=O)[C@H](CCCN)NC(=O)[C@H](CC(=O)O)NC(=O)[C@H](CC(C)C)NC(=O)[C@](C)(CC(C)C)NC(=O)[C@@H](NC(=O)C(C)(C)NC(=O)[C@@H](NC(=O)[C@H](CC(=O)O)NC(=O)[C@H](CO)NC(=O)[C@@H](NC(=O)[C@](C)(Cc1ccccc1F)NC(=O)[C@@H](NC(=O)CNC(=O)[C@H](CCC(=O)O)NC(=O)C(C)(C)NC(=O)[C@@H](N)Cc1ccc(O)cc1)[C@@H](C)O)[C@@H](C)O)C(C)C)[C@@H](C)CC)[C@@H](C)CC)C(=O)N[C@@H](CCC(=O)O)C(=O)NCC(=O)NCC(=O)N[C@@H](CCCCNC(=O)[C@@H](N)CCCCNC(=O)CC[C@H](NC(=O)CCCCCCCCCCCCC(=O)O)C(=O)O)C(=O)N[C@@H](CO)C(=O)N[C@@H](CO)C(=O)NCC(=O)N[C@@H](C)C(=O)N1CCC[C@H]1C(=O)N1CCC[C@H]1C(=O)N1CCC[C@H]1C(=O)N[C@@H](CO)C(N)=O
Human GLP-1 receptor
  cAMP EC50 (1.0% HSA): 26.6 nM
Human GIP receptor
  cAMP EC50 (1.0% HSA): 3.62 nM

B8: Y-Aib-EGT-αMeF(2F)-TSDV-Dap-I-αMeL-LD-Orn-K((2-[2-(2-Amino-ethoxy)-ethoxy]-acetyl)2-(γ-Glu)-CO-(CH2)12-CO2H)AQ-Aib-EFIe-αMeY-LIEGGK((2-[2-(2-Amino-ethoxy)-ethox … (peptide)
peptide: Y[Aib]EGT[αMePhe(2-F)]TSDV[Dap]I[αMeL]LD[Orn]K([AEEA-AEEA-γGlu-C14 diacid])AQ[Aib]EFI[dE][αMeY]LIEGGK([AEEA-AEEA-γGlu-C14 diacid])SSGAPPPS-NH2
modifications: N-terminus assumed
SMILES: CC[C@H](C)[C@H](NC(=O)[C@H](CC(C)C)NC(=O)[C@](C)(Cc1ccc(O)cc1)NC(=O)[C@@H](CCC(=O)O)NC(=O)[C@@H](NC(=O)[C@H](Cc1ccccc1)NC(=O)[C@H](CCC(=O)O)NC(=O)C(C)(C)NC(=O)[C@H](CCC(N)=O)NC(=O)[C@H](C)NC(=O)[C@H](CCCCNC(=O)COCCOCCNC(=O)COCCOCCNC(=O)CC[C@H](NC(=O)CCCCCCCCCCCCC(=O)O)C(=O)O)NC(=O)[C@H](CCCN)NC(=O)[C@H](CC(=O)O)NC(=O)[C@H](CC(C)C)NC(=O)[C@](C)(CC(C)C)NC(=O)[C@@H](NC(=O)[C@H](CN)NC(=O)[C@@H](NC(=O)[C@H](CC(=O)O)NC(=O)[C@H](CO)NC(=O)[C@@H](NC(=O)[C@](C)(Cc1ccccc1F)NC(=O)[C@@H](NC(=O)CNC(=O)[C@H](CCC(=O)O)NC(=O)C(C)(C)NC(=O)[C@@H](N)Cc1ccc(O)cc1)[C@@H](C)O)[C@@H](C)O)C(C)C)[C@@H](C)CC)[C@@H](C)CC)C(=O)N[C@@H](CCC(=O)O)C(=O)NCC(=O)NCC(=O)N[C@@H](CCCCNC(=O)COCCOCCNC(=O)COCCOCCNC(=O)CC[C@H](NC(=O)CCCCCCCCCCCCC(=O)O)C(=O)O)C(=O)N[C@@H](CO)C(=O)N[C@@H](CO)C(=O)NCC(=O)N[C@@H](C)C(=O)N1CCC[C@H]1C(=O)N1CCC[C@H]1C(=O)N1CCC[C@H]1C(=O)N[C@@H](CO)C(N)=O
Human GLP-1 receptor
  cAMP EC50 (1.0% HSA): 25.1 nM
Human GIP receptor
  cAMP EC50 (1.0% HSA): 13.2 nM
  cAMP Emax (1.0% HSA): 80.5%

B9: Y-Aib-EGT-αMeF(2F)-TSDV-αMeS-I-αMeL-LD-Orn-K((2-[2-(2-Amino-ethoxy)-ethoxy]-acetyl)2-(γ-Glu)-CO-(CH2)12-CO2H)AQ-Aib-EFI-(D-Glu)-αMeY-LIEGGK((2-[2-(2-Amino-ethox … (peptide)
peptide: B1 peptide with X10V, S11X
modifications: Aib2, αMeF(2F)6, αMeS11, αMeL13, Orn16, Aib20, D-Glu24, αMeY25; acylated K17, K31 (groups as in name); C-terminal amide
Human GLP-1 receptor
  cAMP EC50 (1.0% HSA): 33.7 nM
  cAMP Emax (1.0% HSA): 91%
Human GIP receptor
  cAMP EC50 (1.0% HSA): 16.6 nM
  cAMP Emax (1.0% HSA): 81%
